In publication PMC8653791, “TBX2 controls a proproliferative gene expression program in melanoma”:

Biological target: T1, Tbx2 T-box DNA-binding domain, TBX2(94-281) (UniProt Q60707 94-281)
T1 sequence: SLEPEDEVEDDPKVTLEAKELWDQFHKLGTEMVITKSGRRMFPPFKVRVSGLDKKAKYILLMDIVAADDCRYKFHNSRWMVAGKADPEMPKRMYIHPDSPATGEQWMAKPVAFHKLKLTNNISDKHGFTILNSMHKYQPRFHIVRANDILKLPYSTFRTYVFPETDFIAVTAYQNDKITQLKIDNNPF
Assay: fluorescence anisotropy; 50 mM HEPES/NaOH pH 7.3, 200 mM NaCl, 25 C, 10 min, 3.33 nM dsDNA probe
Details: protein: recombinant, tags: N-terminal His tag removed by 3C protease (pETM14, NcoI/XhoI), blunt

B1: T-element (T-box) probe (dsDNA)
DNA 1: AATTTCACACCTAGGTGTGAAATT
DNA 2: AATTTCACACCTAGGTGTGAAATT
Kd (label: fluorescein (printed at the 3' end), self-complementary palindrome, 2 copies): ~602 nM

B2: E-box probe (dsDNA)
DNA 1: GAGACCACGTGTTGAC
DNA 2: GTCAACACGTGGTCTC
Kd (label: fluorescein on S14 (printed at the 3' end), complement unlabeled): ~86 nM
